B1: HNF4a: Hepatocyte Nuclear Factor α (NR2A1), cDNA driver (protein, UniProt P41235 1-474, looked up)
Hepatocyte nuclear factor …: MRLSKTLVDMDMADYSAALDPAYTTLEFENVQVLTMGNDTSPSEGTNLNAPNSLGVSALCAICGDRATGKHYGASSCDGCKGFFRRSVRKNHMYSCRFSRQCVVDKDKRNQCRYCRLKKCFRAGMKKEAVQNERDRISTRRSSYEDSSLPSINALLQAEVLSRQITSPVSGINGDIRAKKIASIADVCESMKEQLLVLVEWAKYIPAFCELPLDDQVALLRAHAGEHLLLGATKRSMVFKDVLLLGNDYIVPRHCPELAEMSRVSIRILDELVLPFQELQIDDNEYAYLKAIIFFDPDAKGLSDPGKIKRLRSQVQVSLEDYINDRQYDSRGRFGELLLLLPTLQSITWQMIEQIQFIKLFGMAKIDNLLQEMLLGGSPSDAPHAHHPLHPHLMQEHMGTNVIVANTMPTHLSNGQMCEWPRPRGQAATPETPQPSPPGGSGSEPYKLLPGAVATIVKPLSAIPQPTITKQEVI
B2: RORg: RAR-related Orphan Receptor γ (NR1F3), cDNA driver (protein, UniProt P51449 1-518, looked up)
Nuclear receptor ROR-gamma: MDRAPQRQHRASRELLAAKKTHTSQIEVIPCKICGDKSSGIHYGVITCEGCKGFFRRSQRCNAAYSCTRQQNCPIDRTSRNRCQHCRLQKCLALGMSRDAVKFGRMSKKQRDSLHAEVQKQLQQRQQQQQEPVVKTPPAGAQGADTLTYTLGLPDGQLPLGSSPDLPEASACPPGLLKASGSGPSYSNNLAKAGLNGASCHLEYSPERGKAEGRESFYSTGSQLTPDRCGLRFEEHRHPGLGELGQGPDSYGSPSFRSTPEAPYASLTEIEHLVQSVCKSYRETCQLRLEDLLRQRSNIFSREEVTGYQRKSMWEMWERCAHHLTEAIQYVVEFAKRLSGFMELCQNDQIVLLKAGAMEVVLVRMCRAYNADNRTVFFEGKYGGMELFRALGCSELISSIFDFSHSLSALHFSEDEIALYTALVLINAHRPGLQEKRKVEQLQYNLELAFHHHLCKTHRQSILAKLPPKGKLRSLCSQHVERLQIFQHLHPIVVQAAFPPLYKELFSTETESPVGLSK
B3: RORa: RAR-related Orphan Receptor α (NR1F1), cDNA driver (protein, UniProt P35398 1-523, looked up)
Nuclear receptor ROR-alpha: MESAPAAPDPAASEPGSSGADAAAGSRETPLNQESARKSEPPAPVRRQSYSSTSRGISVTKKTHTSQIEIIPCKICGDKSSGIHYGVITCEGCKGFFRRSQQSNATYSCPRQKNCLIDRTSRNRCQHCRLQKCLAVGMSRDAVKFGRMSKKQRDSLYAEVQKHRMQQQQRDHQQQPGEAEPLTPTYNISANGLTELHDDLSNYIDGHTPEGSKADSAVSSFYLDIQPSPDQSGLDINGIKPEPICDYTPASGFFPYCSFTNGETSPTVSMAELEHLAQNISKSHLETCQYLREELQQITWQTFLQEEIENYQNKQREVMWQLCAIKITEAIQYVVEFAKRIDGFMELCQNDQIVLLKAGSLEVVFIRMCRAFDSQNNTVYFDGKYASPDVFKSLGCEDFISFVFEFGKSLCSMHLTEDEIALFSAFVLMSADRSWLQEKVKIEKLQQKIQLALQHVLQKNHREDGILTKLICKVSTLRALCGRHTEKLMAFKAIYPDIVRLHFPPLYKELFTSEFEPAMQIDG

What was measured:
[1] = test system: mCAR promoter; test: NHR-promoter luciferase screen, mCAR promoter; format: cell-based, mouse; conditions: for luciferase activity normalized to lacZ activity and to a control, mCAR: mCAR promoter-luciferase, CV-1 cells, NHR +/- ligand, control = 1.00; for Luc. act., normalized to lacZ / Normalized Luc. act., normalized to control: mCAR promoter, HR/ligand component
Description: (§1) The use, feasibility, and reproducibility of the functional NHR-promoter screen in a 48-well format have been tested validated. Briefly, there were co-expressed 50 ng of each NHR/NHR homodimer or NHR/RXR heterodimer with 100 ng promoter/luciferase construct and 50 ng of LacZ (as a control for transfection efficiency) in CV-1 cells using Fugene HD (Roche) as a transfection reagent (alternatively or additionally, a CMV-YFP construct can be used as a transfection control). Each of the nuclear hormone receptors that were used in these experiments was cloned into a pcDNA3.1 vector and comprised a C-terminally linked V5H6 tag. Twenty-four hours after transfection, appropriate ligands were added, where applicable, (see Table 5 for various ligands and concentrations and after 48 hrs, samples were assayed for luciferase and LacZ activity. To measure for luciferase activity 15 ul of sample was added to 30 ul of luciferase buffer (20 mM tricine, 1.07 mM MgCarbonate, 2.67 mM MgSulfate, 0.1 mM Naz-EDTA, 5 mM DTT, 5 mM ATP, 0.15 mg/ml CoA, 0.5 mM Luciferin), mixed briefly, and run in a Perkin Elmer Victor 5 luminometer. Thus, the functional NHR-promoter screen was used to observe the transcriptional activity of 29 promoters from various physiological pathways including inflammation, lipid and sugar metabolism, cholesterol transport, xenobiotic metabolism, and circadian rhythm.
(§2) The promoters that facilitate transcription of the indicated gene products that were tested using the protocols described herein are listed in the first row of the table. The nuclear hormone receptors and, where applicable, ligands that were assayed for their transcriptional effects on the promoters are listed in the first column of the table. The data represent the luciferase activity of each sample normalized to both the lacZ activity of that sample and to a control, e.g., no NHR or ligand, as customary in the art. As described previously, these normalizations allow the transcriptional activity of each reporter cell to be compared to other samples.
(§3) Tables 7-40 show the transcriptional effects of the hormone receptors, and, where applicable, ligands (orphan receptors are screened without ligand), on each individual promoter. […] The control data of each table are shown in their last rows.

[2] = test system: mUCP2 promoter; test: NHR-promoter luciferase screen, mUCP2 promoter; format: cell-based, mouse; conditions: for Luc. act., normalized to lacZ / Normalized Luc. act., normalized to control: mUCP2 promoter reporter, co-transfected HR, with or without its ligand; for Normalized Luc. act., normalized to control: relative to control; for luciferase activity normalized to lacZ activity and to a control, mUCP2: mUCP2 promoter-luciferase, CV-1 cells, NHR +/- ligand, control = 1.00
Description: as §1, §2, §3

[3] = test system: mLeptin promoter; test: NHR-promoter luciferase screen, mLeptin promoter; format: cell-based, mouse; conditions: for Luc. act., normalized to lacZ / Normalized Luc. act., normalized to control: Table 7, mLeptin; for Results of assays of transcription factor (+/- ligand) with mLeptin: Table 6d, luciferase activity relative to control (control = 1.00)
Description: as §1, §2, §3

[4] = test system: hCYP3A4 promoter; test: NHR-promoter luciferase screen, hCYP3A4 promoter; format: cell-based, human; conditions: for Luc. act., normalized to lacZ / Normalized Luc. act., normalized to control: CYP3A4 promoter, HR/ligand component; for hCYP3A4 promoter reporter activity: transcription factor +/- ligand, control = 1.00
Description: Briefly, there were co-expressed 50 ng of each NHR/NHR homodimer or NHR/RXR heterodimer with 100 ng promoter/luciferase construct and 50 ng of LacZ (as a control for transfection efficiency) in CV-1 cells using Fugene HD (Roche) as a transfection reagent (alternatively or additionally, a CMV-YFP construct can be used as a transfection control). Each of the nuclear hormone receptors that were used in these experiments was cloned into a pcDNA3.1 vector and comprised a C-terminally linked V5H6 tag.
as §2, §3

[5] = test system: hIFNg promoter; test: NHR-promoter luciferase screen, hIFNg promoter; format: cell-based, human; conditions: for Luc. act., normalized to lacZ / Normalized Luc. act., normalized to control: IFNg promoter, HR component without or with ligand; for hIFNg promoter reporter activity: transcription factor +/- ligand, control = 1.00
Description: as §1, §2, §3

[6] = test system: hPPARg1 promoter; test: NHR-promoter luciferase screen, hPPARg1 promoter; format: cell-based, human; conditions: for Luc. act., normalized to lacZ / Normalized Luc. act., normalized to control: PPARG1 promoter, hormone receptor with or without its ligand; for Normalized Luc. act., normalized to control: relative to control; for Results of assays of transcription factor (+/- ligand) with hPPARg1: Table 6d, luciferase activity relative to control (control = 1.00)
Description: as §1, §2, §3

Row | Molecule | regulation of the Constitutive Androstane Receptor (CAR) promoter ([1]; FIG. 2a, in words) | luciferase activity normalized to lacZ activity and to a control, mCAR [1] | Luc. act., normalized to lacZ [1] | Normalized Luc. act., normalized to control [1] | Luc. act., normalized to lacZ [2] | Normalized Luc. act., normalized to control [2] | luciferase activity normalized to lacZ activity and to a control, mUCP2 [2] | Luc. act., normalized to lacZ [3] | Normalized Luc. act., normalized to control [3] | Results of assays of transcription factor (+/- ligand) with mLeptin [3] | Luc. act., normalized to lacZ [4] | Normalized Luc. act., normalized to control [4] | hCYP3A4 promoter reporter activity [4] | Luc. act., normalized to lacZ [5] | Normalized Luc. act., normalized to control [5] | hIFNg promoter reporter activity [5] | Luc. act., normalized to lacZ [6] | Normalized Luc. act., normalized to control [6] | Results of assays of transcription factor (+/- ligand) with hPPARg1 [6]
1 | B1 | Specific and strong activation | 16.83 | 641.2 | 16.8 | 136.4 | 1.2 | 1.24 | 2.5 | 0.8 | 0.84 | 1.7 | 0.4 | 0.37 | 8.7 | 0.5 | 0.55 | 34.8 | 0.5 | 0.51
2 | B2 | – | 1.13 | 43.1 | 1.1 | 169.5 | 1.5 | 1.54 | 2.6 | 0.9 | 0.87 | 3.4 | 0.8 | 0.76 | 17.9 | 1.1 | 1.12 | 81.5 | 1.2 | 1.18
3 | B3 | – | 0.55 | 20.9 | 0.5 | 104.0 | 0.9 | 0.95 | 2.1 | 0.7 | 0.71 | 1.6 | 0.4 | 0.36 | 8.8 | 0.6 | 0.55 | 74.0 | 1.1 | 1.07

Reference: patent US20110263454A1, “Methods of Identifying Functional Characteristics of Promoters, Transcription Modifying Proteins and Transcription Modulating Agents” (Salk Institute for Biological Studies, priority 2008, published 2011)
